The text below walks through data of US20210388079A1 (published 2021).

For assay [1], the target named is T1, Serine protease inhibitor Kazal-type 2 (SPINK2); peptide SPINK2-001 peptide on HLA-A*02:01 (human).
T1 peptide: ALSVLRLAL
Kind of assay: IFNγ release; T2 cells loaded with 10 µM to 10 pM peptide (FIG. 27); full-length, on cells.

Assay [2] has as its target T1, Serine protease inhibitor Kazal-type 2 …. Briefly: IFNγ release; T2 cells loaded with 10 µM to 10 pM peptide (FIG. 28); full-length, on cells.
Assay [3] has the same target. Kind of assay: IFNγ release; T2 cells loaded with 10 µM to 10 pM peptide (FIG. 30); full-length, on cells.
Assay [4] has the same target. Briefly: IFNγ release; T2 cells loaded with 10 µM to 10 pM peptide (FIG. 23); full-length, on cells.

B1: R44P3E7 (TCR, V domains shown)
Valpha: GEDVEQSLFLSVREGDSSVINCTYTDSSSTYLYWYKQEPGAGLQLLTYIFSNMDMKQDQRLTVLLNKKDKHLSLRIADTQTGDSAIYFCAEINNNARLMFGDGTQLVVKP
Vbeta: AAGVIQSPRHLIKEKRETATLKCYPIPRHDTVYWYQQGPGQDPQFLISFYEKMQSDKGSIPDRFSAQQFSDYHSELNMSSLELGDSALYFCASSPPDQNTQYFGPGTRLTVL
With B1, in assay [1], the EC50 of peptide was 0.86 nM.

B2: R49P2B7 (TCR, V domains shown)
Valpha: AQSVTQLGSHVSVSEGALVLLRCNYSSSVPPYLFWYVQYPNQGLQLLLKYTTGATLVKGINGFEAEFKKSETSFHLTKPSAHMSDAAEYFCAVRIFGNEKLTFGTGTRLTIIP
Vbeta: DVKVTQSSRYLVKRTGEKVFLECVQDMDHENMFWYRQDPGLGLRLIYFSYDVKMKEKGDIPEGYSVSREKKERFSLILESASTNQTSMYLCASSLMGELTGELFFGEGSRLTVL
B2: the EC50 of peptide in assay [2] was greater than 83.2 nM.

B3: R59P2A7 (TCR, V domains shown)
Valpha: QKEVEQNSGPLSVPEGAIASLNCTYSDRGSQSFFWYRQYSGKSPELIMSIYSNGDKEDGRFTAQLNKASQYVSLLIRDSQPSDSATYLCAVQPHDMRFGAGTRLTVKP
Vbeta: SQTIHQWPATLVQPVGSPLSLECTVEGTSNPNLYWYRQAAGRGLQLLFYSVGIGQISSEVPQNLSASRPQDRQFILSSKKLLLSDSGFYLCAWSGLVAEQFFGPGTRLTVL
In turn, B3 gave an EC50 of peptide in assay [3] of 0.86 nM.

B4: R40P1C2 (TCR, V domains shown)
Valpha: AQTVTQSQPEMSVQEAETVTLSCTYDTSESDYYLFWYKQPPSRQMILVIRQEAYKQQNATENRFSVNFQKAAKSFSLKISDSQLGDAAMYFCAYLNYQLIWGAGTKLIIKP
Vbeta: EPEVTQTPSHQVTQMGQEVILRCVPISNHLYFYWYRQILGQKVEFLVSFYNNEISEKSEIFDDQFSVERPDGSNFTLKIRSTKLEDSAMYFCASSEMTAVGQYFGPGTRLTVT
In the case of B4, the EC50 of peptide in assay [4] came to 1.94 nM.
